Test results reported in publication PMC6070752.

Tests used:
[1] = target: T1, His6-MgrA (Staphylococcus aureus NCTC8325) (UniProt Q2G0B1); test: competition; conditions: EMSA: 50 mM Tris-HCl pH 8.0, 200 mM NaCl, 25°C, 1 h, DNase I footprinting: 20 mM Tris-HCl pH 8.0, 100 mM NaCl, 5 mM MgCl2, 1 mM CaCl2, 2 mM DTT
T1 sequence: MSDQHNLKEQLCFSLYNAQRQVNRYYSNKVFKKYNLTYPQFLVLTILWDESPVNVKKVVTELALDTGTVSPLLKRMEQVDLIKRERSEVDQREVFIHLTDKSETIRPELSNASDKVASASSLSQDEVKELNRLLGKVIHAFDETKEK

[2] = target: T1, His6-MgrA (Staphylococcus aureus NCTC8325); test: EMSA; conditions: EMSA: 50 mM Tris-HCl pH 8.0, 200 mM NaCl, 25°C, 1 h, DNase I footprinting: 20 mM Tris-HCl pH 8.0, 100 mM NaCl, 5 mM MgCl2, 1 mM CaCl2, 2 mM DTT

Sequence: ACTTAAATACGAATTCAGGCAACTTAATTGTGTTAAATACAGTTTTGAATGCCTAACTGTATTTCTTTTCTCTTTAAAATACAGTTAAGTACATTATAAGATGTTGTGCGGATAAACAAACTAATTGCATCAAATTTATTTTAAAATAACAACAACAAAACGTTAAGCGAATAACATTTCGGTGATTTAAAAGCTACGCACGTTTTTGTTATCTTCAAATTTAAATTTTAAGGAGTGTTTTCAATGGAAGGTT (double strand) [unlabeled psmβ promoter fragment (Ppsmβ), 243 bp]
- binding [1]: binds

Sequence: ACTTAAATACGAATTCAGGCAACTTAATTGTGTTAAATACAGTTTTGAATGCCTAACTGTATTTCTTTTCTCTTTAAAATACAGTTAAGTACATTATAAGATGTTGTGCGGATAAACAAACTAATTGCATCAAATTTATTTTAAAATAACAACAACAAAACGTTAAGCGAATAACATTTCGGTGATTTAAAAGCTACGCACGTTTTTGTTATCTTCAAATTTAAATTTTAAGGAGTGTTTTCAATGGAAGGTT (double strand) [psmβ promoter fragment (Ppsmβ-biotin), 243 bp]
- binding [2]: binds
